Data taken from patent publication US20190119357A1, “MESSENGER RIBONUCLEIC ACIDS FOR THE PRODUCTION OF INTRACELLULAR BINDING POLYPEPTIDES AND METHODS OF USE THEREOF” (ModernaTX, Inc., priority 2015, published 2019).
“Also recorded” adds a separate entry of the source.

What was measured:
HeLa cells = assay: PARP-1 cleavage by SDS-PAGE and Western blotting after transfection of mRNAs encoding SQT-BH3 constructs; assay type: cell-based; details: from anti-FLAG and anti-GFP Western blotting
Source text: The cleavage of PARP-1 was detected by the appearance of a faster-migrating band and concomitant loss of the full-length band by SDS-PAGE and Western blotting. Western blotting with anti-actin antibodies served as a loading control.

BCL-XL = molecular target: T1, BCL-XL (Homo sapiens, UniProt Q07817); assay: Co-immunoprecipitation after mRNA transfection; assay type: binding; details: within two hours after mRNA transfection
T1 construct: endogenous in cells; host or cells: cells transfected with SQT-BH3 mRNA (HeLa by context)

BCL-2 = molecular target: T2, BCL-2 (Homo sapiens, UniProt P10415); assay: Co-immunoprecipitation after mRNA transfection; assay type: binding; details: within two hours after mRNA transfection
T2 construct: endogenous in cells; host or cells: cells transfected with SQT-BH3 mRNA (HeLa by context)

[1] = tested on: human melanoma cells (A375); assay: Cell death after mRNA transfection; assay type: cell-based
[2] = tested on: human hepatocellular carcinoma (Hep G2) cells; assay: Cell death and morphology after mRNA transfection; assay type: cell-based
Source text: A representative graph of the apoptotic ability of the SQT-BH3 constructs is shown in FIG. 2, showing the cell killing capacity of the SQT-BH3 constructs in Hep G2 cells.

HepG2 cells = assay: Cell death by YOYO3 with MC3 LNPs; assay type: cell-based
primary hepatocytes [3] = assay: Apoptosis induction by MC3 LNP-formulated mRNAs in primary hepatocytes cultured in vitro; assay type: cell-based
[4] = Survival of mice treated with MC3 LNP formulations of mRNA with or without miR-122 binding site; assay type: in vivo
Source text: Negative controls included mRNA encoding SQT alone or SQT with a miR-122 binding site. Constitutively active caspase 6 was used as a positive control. An LNP containing a non-translatable factor IX cap 0 mRNA was used to control for mRNA and lipid effects that might be independent of the proteins encoded by the modified mRNAs. […] This dose was 10 times greater than a dose of mRNA encoding SQT-PUMA-BH3 that killed 40% of mice.

Hep3B cells [5] = assay: Sorafenib combination, YOYO-3 apoptosis on IncuCyte ZOOM; assay type: cell-based
Procedure: To determine the effect of SQT-BH3 constructs in combination with the protein tyrosine kinase inhibitor Sorafenib on liver cells, 20,000 Hep3B cells/well in a 96 well plate were treated with increasing amounts of sorafenib tosylate (Selleck Chemicals) and transfected with LNPs containing SQT-PUMA-BH3 (68 pM) or SQT-Bad-BH3 (550pM).

[6] = tested on: primary mouse hepatocytes; assay: Sorafenib combination in primary mouse hepatocytes; assay type: cell-based; details: SQT-PUMA-BH3 205 pM or 1100 pM, SQT-Bad-BH3 549 pM or 1100 pM, sorafenib 0-10 uM
Procedure: Similar combination experiments were performed with primary mouse hepatocytes, treated with SQT-PUMA-BH3 (205 pM or 1100 pM) or SQT-Bad-BH3 (549 pM or 1100 pM) in combination with sorafenib (0-10 μM). […] Thus, normal primary liver cells are spared by the combination treatment, indicating the combination treatment can selectively kill liver cancer cells over normal liver cells.

Hep3b xenografts = assay: Efficacy in SCID mice bearing subcutaneous Hep3B xenografts; assay type: in vivo; details: SC Hep3B, 2mpk or 3mpk weekly (Day 1 and Day 8), mmRNA with miR-122 binding site in MC3 LNPs (1.5% DSPE)
Procedure: LNPs comprising the cationic lipid MC3 were tested using the optimal molar percentage of PEG-lipid and optimal PEG length (1.5% DSPE, C18, as described in Example 10), for in vivo targeted delivery of SQT-PUMA-BH3.
SCID mice were dosed weekly (Day 1 and Day 8) over a two week period with mmRNA encoding SQT-PUMA-BH3 (comprising a miR-122 binding site), as described above.

Hep3B SC tumors = assay: Combination with sorafenib in SCID mice bearing Hep3B SC tumors; assay type: in vivo; details: mmRNA with miR122 binding site, 1.5 mg/kg IV weekly alone, three weeks, end of study
Procedure: SCID mice bearing Hep3B SC tumors (tumor size range 140-227 mm^3; average=183 mm^3) were dosed over a three week period with a combination of 0.5% methyl cellulose daily and SQT IV at 1.5 mg/kg alone weekly (Days 1, 8 and 15; Group 1), Sorafenib (in 0.5% methyl cellulose) at 10 mg/kg orally daily alone (Group 2), mmRNA encoding SQT-PUMA-BH3 (comprising a miR122 binding site) weekly at 1.5 mg/kg IV alone (Group 3) or a combination of mmRNA encoding SQT-PUMA-BH3 (with miR122 binding site) at 1.5 mg/kg IV weekly with sorafenib at 10 mg/kg orally daily (Group 4; 10 animals per group).

[7] = tested on: Orthotopic Hep3B xenografts; assay: Efficacy in SCID mice bearing orthotopic Hep3B xenografts; assay type: in vivo; details: orthotopic Hep3B study, over the course of the study
Procedure: LNPs comprising the cationic lipid MC3 were tested using the optimal percentage of PEG-lipid and optimal PEG length (1.5% DSPE, C18, as described in Example 10), for in vivo targeted delivery of SQT-PUMA-BH3 in a model of Orthotopic Hep3B xenografts.
SCID mice were anesthetized, a transverse incision was made below the xiphoid and Hep3B cells (2×10^6) were injected into the upper left lobe of the liver, followed by surgical closure of the abdomen and skin. Tumor growth was measured by whole body bioluminescent imaging (BLI) in anaesthetized animals following SC injection of 150 mg/kg D-Luciferin, in an imaging chamber (Spectrum CT). Bioluminescence was measured as total flux (photons/second) of the entire animals. On Day 8 following tumor implantation when tumor BLI reached an average of 3.17×10^8 photons/sec (range 12.37×10^7−1.38×10^9 photons/sec), animals were randomized into study groups and treated weekly over a three week period (Days 9, 16 and 23) with PBS IV (Group 1), SQT 3 mg/kg IV (Group 2), mmRNA encoding SQT-PUMA-BH3 (comprising a miR122 binding site) weekly at 0.75 mg/kg (Group 3), 1.5 mg/kg (Group 4) or 3 mg/kg IV (Group 5; 12 animals per group). One week following the final dose, animals were euthanized and tumors excised and weighed.

Hep3B cells [8] = assay: SQT-BH3 in combination with siMCL1 or sorafenib, YOYO-3; assay type: cell-based; details: 10 uM sorafenib tosylate, 24 hours after treatment
primary hepatocytes [9] = details: 10uM sorafenib tosylate, 24 hours after treatment
Procedure: Controls were an empty SQT construct (“SQT-dummy”), a non-targeting siRNA and PBS. For treatment of Hep3B cells, 20,000 Hep3B cells/well per plated in 96-well plates. At Day 1, some wells were transfected with siMCL1 (Dharmacon, ON-TARGETplus Human MCL1 (4170) siRNA-SMARTpool, # L-004501-00-0005) or non-targeting siRNA (ON-TARGETplus Non-targeting Control Pool, # D-001810-10-05). […] 24 hours after treatment, YOYO®-3 iodide (Life Technologies) viability dye was added to each well and cell death was measured on an IncuCyte ZOOM® using YOYO-3 fluorescence as a readout (=“Apoptosis”). For treatment of primary hepatocytes, 18,000 mouse hepatocytes (Gibco) were seeded in each well of a 96-well plate. At Day 1, some wells were transfected with siMCL1 (Dharmacon, SMARTpool: ON-TARGETplus Mc11 siRNA, # L-062229-00-0005) or non-targeting siRNA (ON-TARGETplus Non-targeting Control Pool, # D-001810-10-05). […] 24 hours after treatment, Caspase 3/7 reagent (EssenBio) apoptosis dye was added to each well and cell death was measured on an IncuCyte ZOOM® using the caspase 3/7 reagent fluorescence as a readout (=“Apoptosis”).

T1 sequence (Q07817 whole entry): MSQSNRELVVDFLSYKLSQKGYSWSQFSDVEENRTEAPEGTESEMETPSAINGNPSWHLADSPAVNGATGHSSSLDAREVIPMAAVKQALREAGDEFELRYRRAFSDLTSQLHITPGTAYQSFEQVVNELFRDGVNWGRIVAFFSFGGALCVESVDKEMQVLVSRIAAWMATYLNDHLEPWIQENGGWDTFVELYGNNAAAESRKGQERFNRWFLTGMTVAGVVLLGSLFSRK
T2 sequence (P10415 whole entry): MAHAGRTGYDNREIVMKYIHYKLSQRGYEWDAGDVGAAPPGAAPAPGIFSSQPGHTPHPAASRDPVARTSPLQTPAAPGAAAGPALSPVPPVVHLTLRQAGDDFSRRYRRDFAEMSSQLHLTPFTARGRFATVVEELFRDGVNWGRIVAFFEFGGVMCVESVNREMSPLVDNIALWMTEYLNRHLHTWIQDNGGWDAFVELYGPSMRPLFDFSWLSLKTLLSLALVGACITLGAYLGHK

B1: SQT-PUMA-BH3: mRNA (SEQ ID NO: 49, FLAG) encoding SQT scaffold with PUMA BH3 domain in N-terminus, fully modified with 1-methyl-pseudouridine (nucleic acid)
chain: ATGATCCCAAGAGAAGAACAGTGGGCACGCGAAATTGGAGCTCAACTCAGACGGATGGCCGACGACCTGAACGCCCAGTACGAGCGGCGGGGACTCTCAGAAGCGAAGCCTGCCACCCCCGAAATCCAGGAAATCGTCGACAAGGTCAAGCCGCAGCTTGAGGAAAAGACCAACGAGACTTACGGAAAACTGGAGGCCGTGCAGTATAAGACCCAAGTGTTGGCCTCCACCAACTACTACATTAAGGTCCGCGCCGGCGATAACAAGTACATGCACCTGAAGGTGTTCAATGGTCCTCCGGGACAGAACGCGGACAGGGTGCTGACTGGCTACCAAGTGGACAAGAACAAGGACGACGAGCTGACGGGCTTCGACTACAAGGATGATGATGACAAA
modifications: FLAG tag, 1-methyl-pseudouridine; Synthetic SQT-PUMA-BH3 mRNA sequence with FLAG epitope tag
cell death of transfected cells (HeLa cells): underwent cell death | interaction with BCL-XL by co-immunoprecipitation (BCL-XL): able interact | interaction with BCL-2 by co-immunoprecipitation (BCL-2): to a lesser extent | cell death [1]: caused rapid cell death almost immediately following transfection | cell death [2]: caused rapid cell death almost immediately following transfection; also recorded: underwent cell death almost immediately following transfection | cell morphology [2]: rounded-up cell morphology that is characteristic of apoptotic cells | cell death (YOYO3 staining) (HepG2 cells): lead to cell death; also recorded: kills HepG2 cells | PARP-1 cleavage (primary hepatocytes [3]; LNPs): also induced PARP-1 cleavage in primary hepatocytes | apoptosis (YOYO-3 dye uptake and fluorescence) as a function of time (primary hepatocytes [3]; MC3-LNP-formulated): induce apoptosis | mice killed ([4]; mRNA without miR-122 binding site, dose 10 times lower than 1 mg/kg): 40% | toxicity / tolerable dose / survival ([4]; mice, MC3 LNP formulations, 0.1-3 mg/kg): very toxic over a range of doses | death of the treated animals, time ([4]; mice, MC3 LNP, mRNA without miR-122 binding sites, range of doses): ≤ 5 h | survival rate ([4]; mice, lowest dose of 0.1 mg/kg, mRNA without miR-122 binding sites): approximately 60% | nature of combination effect with sorafenib (Hep3B cells [5]; SQT-PUMA-BH3 68 pM or SQT-Bad-BH3 550pM): synergistic effect | apoptosis (YOYO-3), combination with sorafenib vs sorafenib alone (Hep3B cells [5]; SQT-PUMA-BH3 68 pM or SQT-Bad-BH3 550pM in LNPs, increasing sorafenib tosylate): increased apoptosis of the liver cells as compared to treatment with sorafenib alone | apoptosis in combination with sorafenib [6]: neither SQT-BH3 construct, in combination with sorafenib, caused apoptosis | tumor growth inhibition (TGI) (Hep3b xenografts): significantly greater TGI than the mice treated with PBS alone | tumor growth inhibition (TGI) (Hep3B SC tumors): 28% | percent body weight change / tolerability [7]: did not significantly impact body weight | apoptosis (YOYO-3) in combination with either siMCL1 or sorafenib (Hep3B cells [8]): led to a marked increase in apoptosis as compared to treatment with the SQT-BH3 construct in combination with non-targeting siRNA or PBS; also recorded: synergistic pro-apoptotic effect | apoptosis (caspase 3/7) in combination with siMCL1, sorafenib or controls (primary hepatocytes [9]): did not lead to increased apoptosis as compared to treatment with the control SQT-dummy construct
